Source: paper PMC4350099
Each block holds one substance with its values, some of them ahead of it.

Molecular target: 14-3-3ζ (UniProt P63104)
Assay: GST pull-down from co-transfected cells
Conditions: reference: wild type

binding against the reference (sites S1917): weaker
Substance: Notch4 (Notch4-ICD; Notch4-ΔhN4) ICD (from UniProt Q99466) S1917A

binding against the reference (sites S1495,S1847,S1865,S1917): lost
Substance: Notch4 (Notch4-ICD; Notch4-ΔhN4) ICD (from UniProt Q99466) 4XA (S1495/1847/1865/1917A)

The next lines start with the substance.

Substance: Notch4 (Notch4-ICD; Notch4-ΔhN4) ICD (from UniProt Q99466) S1847A
binding against the reference (sites S1847): weaker

Substance: Notch4 (Notch4-ICD; Notch4-ΔhN4) ICD (from UniProt Q99466) S1865A
binding against the reference (sites S1865): weaker

Substance: Notch4 (Notch4-ICD; Notch4-ΔhN4) ICD (from UniProt Q99466) S1495A
binding against the reference (sites S1495): weaker
